From patent US20180134781A1 (Regeneron, published 2018) come the findings set out here.

One assay addresses T1, mouse ANGPTL3 (mouse, UniProt Q9R182 17-455, limits assumed).
T1 sequence (looked up): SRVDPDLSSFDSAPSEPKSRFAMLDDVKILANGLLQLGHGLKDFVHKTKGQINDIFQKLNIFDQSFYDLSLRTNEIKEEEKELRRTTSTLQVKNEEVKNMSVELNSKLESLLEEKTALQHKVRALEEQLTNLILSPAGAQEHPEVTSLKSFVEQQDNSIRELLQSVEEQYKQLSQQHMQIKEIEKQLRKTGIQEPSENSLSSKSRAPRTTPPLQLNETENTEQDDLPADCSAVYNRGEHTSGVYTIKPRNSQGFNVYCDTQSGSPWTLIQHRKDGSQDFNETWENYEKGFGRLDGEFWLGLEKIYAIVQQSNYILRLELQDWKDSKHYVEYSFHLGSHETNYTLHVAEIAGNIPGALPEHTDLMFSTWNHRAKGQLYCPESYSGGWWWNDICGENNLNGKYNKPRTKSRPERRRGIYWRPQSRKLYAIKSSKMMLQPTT
Put plainly: SPR. A general note: SPR reads the build-up and loss of mass on a sensor chip optically.

A further assay concerns the target T2, mouse ANGPTL8 (mouse, UniProt Q8R1L8 16-198, limits assumed).
T2 sequence (looked up): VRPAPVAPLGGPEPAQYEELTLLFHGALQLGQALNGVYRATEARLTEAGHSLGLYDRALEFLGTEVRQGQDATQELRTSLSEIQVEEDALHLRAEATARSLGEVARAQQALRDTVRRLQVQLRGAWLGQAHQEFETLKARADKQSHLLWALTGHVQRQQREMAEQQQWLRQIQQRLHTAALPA
The experiment in a line: SPR.

The target in another assay is T3, human ANGPTL3 (human, UniProt Q9Y5C1 17-460, limits assumed).
T3 construct: also called hANGPTL3
T3 sequence: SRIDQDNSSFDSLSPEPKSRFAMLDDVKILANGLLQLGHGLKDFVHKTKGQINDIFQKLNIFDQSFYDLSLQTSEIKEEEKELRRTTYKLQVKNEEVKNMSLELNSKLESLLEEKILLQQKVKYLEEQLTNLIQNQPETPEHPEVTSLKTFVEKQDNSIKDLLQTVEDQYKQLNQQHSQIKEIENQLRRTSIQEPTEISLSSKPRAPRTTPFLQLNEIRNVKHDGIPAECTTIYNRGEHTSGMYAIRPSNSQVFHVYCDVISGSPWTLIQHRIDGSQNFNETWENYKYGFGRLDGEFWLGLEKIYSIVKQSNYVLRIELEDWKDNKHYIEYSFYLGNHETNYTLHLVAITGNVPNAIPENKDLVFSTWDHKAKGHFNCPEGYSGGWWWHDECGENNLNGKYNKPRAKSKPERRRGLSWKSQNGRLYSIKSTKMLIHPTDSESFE
The experiment in a line: SPR.

A further assay deals with T4, mouse ANGPTL4 (mouse, UniProt Q9Z1P8 24-410, limits assumed).
T4 sequence (looked up): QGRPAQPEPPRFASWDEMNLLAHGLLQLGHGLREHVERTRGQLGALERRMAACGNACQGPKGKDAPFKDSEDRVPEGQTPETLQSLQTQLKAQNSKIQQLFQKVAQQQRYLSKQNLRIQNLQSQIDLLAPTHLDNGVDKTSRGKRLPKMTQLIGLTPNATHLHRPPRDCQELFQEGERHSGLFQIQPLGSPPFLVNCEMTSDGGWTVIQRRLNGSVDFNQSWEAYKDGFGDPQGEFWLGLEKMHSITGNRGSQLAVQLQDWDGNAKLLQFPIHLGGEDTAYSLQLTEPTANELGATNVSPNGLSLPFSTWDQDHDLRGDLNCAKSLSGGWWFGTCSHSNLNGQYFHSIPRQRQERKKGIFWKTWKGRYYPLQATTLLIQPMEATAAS
The experiment in a line: SPR.

In a further assay the target is T5, human ANGPTL4 (human, UniProt Q9BY76 26-406, limits assumed).
T5 construct: also called hANGPTL4
T5 sequence: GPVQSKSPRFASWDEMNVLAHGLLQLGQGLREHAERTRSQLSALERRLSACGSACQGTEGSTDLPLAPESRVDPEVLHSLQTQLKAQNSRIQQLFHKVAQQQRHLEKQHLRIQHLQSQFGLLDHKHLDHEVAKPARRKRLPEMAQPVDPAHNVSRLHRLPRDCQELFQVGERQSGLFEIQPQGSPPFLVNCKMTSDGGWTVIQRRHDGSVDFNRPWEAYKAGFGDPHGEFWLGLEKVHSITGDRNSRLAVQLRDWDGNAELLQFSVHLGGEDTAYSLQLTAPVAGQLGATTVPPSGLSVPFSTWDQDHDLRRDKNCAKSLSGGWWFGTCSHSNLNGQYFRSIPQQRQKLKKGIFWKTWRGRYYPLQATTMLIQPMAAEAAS
The experiment in a line: SPR.

Assay [1] has as its target T6, hLDLR-mFc (negative control protein with the same mFc tag) (human, UniProt P01130 22-788).
T6 construct: also called Irrelevant control; not shown: mFc tag ('the same mFc tag', mouse IgG2a Fc)
The experiment in a line: BLI (Octet HTX), hLDLR-mFc captured on AMC sensor. As for the experimental part: (§1) Binding of ANGPTL8 antibodies to human and monkey ANGPTL8 proteins was investigated using Bio-layer Interferometry with an Octet HTX biosensor platform (ForteBio, A Division of Pall Life Sciences). All experiments were performed at 25° C. in 10 mM HEPES pH 7.4, 150 mM NaCl, 0.05% v/v Surfactant Tween-20, and 1 mg/ml BSA with the reaction multiwell plate agitated at 1000 rpm. Approximately 1.6 nm of human ANGPTL8 produced with a C-terminal mouse IgG2a Fc tag (hANGPTL8-mFc; SEQ ID NO: 340) or cynomolgus monkey ANGPTL8 produced with a C-terminal mouse IgG2a Fc tag (MfANGPTL8-mFc; SEQ ID NO: 341) was captured onto anti-mFc (AMC) Octet biosensors by submerging the sensors into wells containing 10 μg/mL of each protein for 4 minutes. Under the same conditions a negative control protein with the same mFc tag (hLDLR-mFc) was also coupled to the AMC sensor. All four sensors, […] and one blank, were then submerged into wells containing 100 nM of different ANGPTL8 monoclonal antibodies or an isotype control for 4 minutes.
(In general: Biolayer interferometry detects binding as a change in optical thickness at a sensor tip.)

Assay [2] concerns the target T7, human ANGPTL8 expressed with C-terminal mouse IgG2a Fc tag (human).
T7 construct: also called hANGPTL8-mFc; hANGPTL8.mFc
T7 chain: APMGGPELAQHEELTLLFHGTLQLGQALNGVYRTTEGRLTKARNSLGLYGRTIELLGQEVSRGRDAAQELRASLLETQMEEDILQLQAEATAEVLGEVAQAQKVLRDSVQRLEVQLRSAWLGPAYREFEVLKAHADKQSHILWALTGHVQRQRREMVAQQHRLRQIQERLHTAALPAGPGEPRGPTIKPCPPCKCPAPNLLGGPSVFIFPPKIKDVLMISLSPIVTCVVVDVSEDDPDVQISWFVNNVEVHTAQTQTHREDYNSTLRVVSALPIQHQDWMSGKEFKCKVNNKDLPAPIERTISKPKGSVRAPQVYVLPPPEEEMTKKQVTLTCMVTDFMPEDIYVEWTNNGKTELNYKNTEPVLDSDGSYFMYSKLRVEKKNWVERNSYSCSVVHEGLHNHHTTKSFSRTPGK
Put plainly: BLI (Octet HTX), hANGPTL8-mFc captured on AMC sensor. The procedure: as §1

Assay [3] concerns the target T8, monkey ANGPTL8 expressed with C-terminal mouse IgG2a Fc tag (cynomolgus monkey).
T8 construct: also called MfANGPTL8-mFc; mfANGPTL8-mFc
T8 chain: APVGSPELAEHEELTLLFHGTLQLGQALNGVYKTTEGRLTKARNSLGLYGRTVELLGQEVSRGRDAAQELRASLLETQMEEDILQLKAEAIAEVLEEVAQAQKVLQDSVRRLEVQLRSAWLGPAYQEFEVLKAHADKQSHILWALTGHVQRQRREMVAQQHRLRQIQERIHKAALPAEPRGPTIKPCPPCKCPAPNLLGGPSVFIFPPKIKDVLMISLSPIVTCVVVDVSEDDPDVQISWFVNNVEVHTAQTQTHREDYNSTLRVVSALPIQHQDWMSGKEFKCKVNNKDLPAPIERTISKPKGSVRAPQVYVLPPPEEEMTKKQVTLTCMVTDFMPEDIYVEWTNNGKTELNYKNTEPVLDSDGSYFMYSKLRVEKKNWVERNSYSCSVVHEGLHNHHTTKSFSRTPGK
The experiment in a line: BLI (Octet HTX), MfANGPTL8-mFc captured on AMC sensor. The procedure: as §1

T6 sequence (P01130 22-788): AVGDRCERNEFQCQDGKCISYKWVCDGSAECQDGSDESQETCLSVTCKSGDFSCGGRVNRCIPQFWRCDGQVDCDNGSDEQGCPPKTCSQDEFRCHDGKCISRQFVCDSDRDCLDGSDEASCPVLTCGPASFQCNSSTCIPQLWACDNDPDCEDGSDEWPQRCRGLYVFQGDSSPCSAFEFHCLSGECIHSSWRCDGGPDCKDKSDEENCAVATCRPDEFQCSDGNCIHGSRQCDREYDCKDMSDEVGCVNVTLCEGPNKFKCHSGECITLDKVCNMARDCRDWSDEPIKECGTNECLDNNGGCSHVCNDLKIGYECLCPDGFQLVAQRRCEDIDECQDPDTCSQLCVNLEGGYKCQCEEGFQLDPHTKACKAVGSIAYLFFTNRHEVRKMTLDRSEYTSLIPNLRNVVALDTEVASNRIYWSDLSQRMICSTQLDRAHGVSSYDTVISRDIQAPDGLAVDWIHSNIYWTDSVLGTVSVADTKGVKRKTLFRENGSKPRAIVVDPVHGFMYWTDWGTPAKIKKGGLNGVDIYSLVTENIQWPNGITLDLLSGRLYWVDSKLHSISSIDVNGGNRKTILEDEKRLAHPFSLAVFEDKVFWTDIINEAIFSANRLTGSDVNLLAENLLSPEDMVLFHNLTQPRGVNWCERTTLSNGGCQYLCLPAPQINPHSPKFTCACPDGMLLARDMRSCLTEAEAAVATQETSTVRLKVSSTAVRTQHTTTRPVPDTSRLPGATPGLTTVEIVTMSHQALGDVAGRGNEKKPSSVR

B1: H4H15341P (antibody, human IgG4, V domains shown)
VH: EVQLVESGGGLVQPGGSLRLSCAASGFTFNNHEMNWVRQAPGKGLEWVSYISSSGNTVTYADFLKGRFTISRDNAKNSLFLQMNSLRDEDTAVYYCARDHLSGTSPLSYWGQGTLVTVSS
VL: DIQMTQSPSSLSASVGDRVTITCQASQDINNYLNWFQQKPGKAPKLLIFDASNLETGVPSRFSGSGSGTDFTFTISSLQPEDIATYFCQQYENLPYTFGQGTKLEIK
notes: also called anti-hANGPTL8
Regarding B1, the binding result with mouse ANGPTL3 was “no binding”; with mouse ANGPTL8 it was “no binding”; with human ANGPTL3, “no binding”; with mouse ANGPTL4, “no binding”; in the assay with human ANGPTL4, “no binding”; in assay [1], “no binding (tested: 0.03 nm at 100 nM mAb)”.

B2: H4H15316P (antibody, human IgG4, V domains shown)
VH: EVQLVESGGGLVQPGRSLRLSCAASGFIFDDYDMHWVRQAPGKGLEWVSGISWNSGSKGYADSVKGRFTISRDNAKNSLYLQMNSLRAEDTALYYCTKGPWDYFDYWGQGTLVTVSS
VL: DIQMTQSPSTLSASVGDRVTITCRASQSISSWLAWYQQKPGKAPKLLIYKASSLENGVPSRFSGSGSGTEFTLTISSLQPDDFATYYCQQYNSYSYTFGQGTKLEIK
notes: human IgG4 Fc (H4H prefix)
On to B2, for which the binding result in assay [2] is recorded as “no binding (tested: background 0.03 nm at 100 nM mAb)”; in assay [1], “no binding (tested: 0.03 nm at 100 nM mAb)”; in assay [3], “no binding (tested: background 0.03 nm at 100 nM mAb)”.
